The values that follow come from patent US20030044858A1.

Experiment [1] concerns the target FcεRI alpha chain on CHO 3D10 cells (UniProt P12319). The experiment can be described thus: FACS, 0.1 ug/ml, CHO 3D10 cells. For orientation: A flow cytometer gives signals particle by particle.
For experiment [2] the target is unchanged. The experiment can be described thus: FACS, 0.5 ug/ml, CHO 3D10 cells.
Experiment [3] concerns the target T1, FcεRII (CD23) on IM9 cells (human) (UniProt P06734).
T1 sequence (looked up): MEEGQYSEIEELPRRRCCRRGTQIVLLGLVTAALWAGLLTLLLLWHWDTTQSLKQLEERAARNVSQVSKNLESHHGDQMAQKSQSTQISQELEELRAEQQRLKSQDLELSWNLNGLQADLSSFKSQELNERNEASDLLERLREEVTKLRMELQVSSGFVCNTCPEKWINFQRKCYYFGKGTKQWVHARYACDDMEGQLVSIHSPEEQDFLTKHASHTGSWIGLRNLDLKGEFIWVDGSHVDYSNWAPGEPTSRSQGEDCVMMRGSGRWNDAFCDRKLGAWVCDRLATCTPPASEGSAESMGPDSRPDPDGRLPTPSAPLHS
The experiment can be described thus: FACS, 5 ug/ml, IM9 cells.

Experiment [4] addresses FcεRI alpha chain on CHO 3D10 cells (UniProt P12319). Description: FACS, 5 ug/ml, CHO 3D10 cells.
Experiment [5] addresses T1, FcεRII (CD23) on IM9 cells (human). The experiment can be described thus: FACS, 0.1 ug/ml, IM9 cells.
Experiment [6] has as its target FcεRI alpha chain on CHO 3D10 cells (UniProt P12319). Description: FACS, 10 ug/ml, CHO 3D10 cells.
Experiment [7] concerns the target T1, FcεRII (CD23) on IM9 cells (human). The experiment can be described thus: FACS, 10 ug/ml, IM9 cells.
For experiment [8] the target is unchanged. Description: FACS, 0.5 ug/ml, IM9 cells.
The target is the same in experiment [9]. The experiment can be described thus: FACS, 1.65 ug/ml, IM9 cells.
The target in experiment [10] is FcεRI alpha chain on CHO 3D10 cells (UniProt P12319). Description: FACS, 1.65 ug/ml, CHO 3D10 cells.
FcεRI alpha chain on CHO 3D10 cells, sequence (P12319 26-257 limits assumed): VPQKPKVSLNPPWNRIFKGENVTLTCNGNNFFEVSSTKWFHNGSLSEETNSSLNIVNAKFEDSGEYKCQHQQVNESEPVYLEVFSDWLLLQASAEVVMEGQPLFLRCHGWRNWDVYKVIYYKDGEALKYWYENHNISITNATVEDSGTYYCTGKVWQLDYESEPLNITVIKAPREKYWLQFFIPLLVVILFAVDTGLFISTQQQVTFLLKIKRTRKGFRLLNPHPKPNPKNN

human IgE (U266 IgE), sequence (P01854 whole entry): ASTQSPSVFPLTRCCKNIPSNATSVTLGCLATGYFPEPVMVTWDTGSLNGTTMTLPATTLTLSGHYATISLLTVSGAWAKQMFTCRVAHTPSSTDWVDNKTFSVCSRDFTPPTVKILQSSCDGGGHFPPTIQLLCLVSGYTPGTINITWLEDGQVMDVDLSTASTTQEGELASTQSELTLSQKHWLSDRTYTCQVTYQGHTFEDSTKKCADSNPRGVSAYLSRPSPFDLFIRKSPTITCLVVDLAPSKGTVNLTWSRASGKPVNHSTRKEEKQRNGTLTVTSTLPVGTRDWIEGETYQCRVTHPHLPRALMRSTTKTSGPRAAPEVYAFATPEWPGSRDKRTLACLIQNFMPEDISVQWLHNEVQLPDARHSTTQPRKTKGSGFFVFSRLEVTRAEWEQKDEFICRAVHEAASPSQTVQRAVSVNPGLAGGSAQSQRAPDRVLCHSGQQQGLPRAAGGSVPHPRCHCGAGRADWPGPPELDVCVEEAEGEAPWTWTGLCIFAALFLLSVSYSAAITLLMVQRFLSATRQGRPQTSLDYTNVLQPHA
human IgE mutant 8 (T387A, T389A), sequence (P01854 other isoform, or with tags, fused parts or gaps, stated change not applied): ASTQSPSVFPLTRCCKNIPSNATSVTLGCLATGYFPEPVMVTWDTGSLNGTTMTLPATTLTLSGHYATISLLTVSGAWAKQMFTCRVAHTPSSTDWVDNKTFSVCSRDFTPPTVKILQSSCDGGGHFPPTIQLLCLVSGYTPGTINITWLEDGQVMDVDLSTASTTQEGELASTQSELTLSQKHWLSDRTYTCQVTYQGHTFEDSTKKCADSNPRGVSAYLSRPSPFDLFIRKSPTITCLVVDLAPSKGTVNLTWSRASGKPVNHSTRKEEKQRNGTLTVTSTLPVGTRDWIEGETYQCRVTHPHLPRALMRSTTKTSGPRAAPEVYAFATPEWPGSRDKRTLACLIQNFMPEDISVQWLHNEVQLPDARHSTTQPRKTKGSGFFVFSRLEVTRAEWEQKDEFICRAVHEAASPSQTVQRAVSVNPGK
human IgE mutant 12 (S471A, T473A), sequence (P01854 other isoform, or with tags, fused parts or gaps, stated change not applied): as above
human IgE mutant 4 (loop EF exchanged), sequence (P01854 other isoform, or with tags, fused parts or gaps, change not shown): as the sequence (P01854 other isoform, or with tags, fused parts or gaps, stated change not applied) above
human IgE mutant 3 (loop CD exchanged), sequence (P01854 other isoform, or with tags, fused parts or gaps, change not shown): as the sequence (P01854 other isoform, or with tags, fused parts or gaps, stated change not applied) above
human IgE mutant 10 (T438A, T440A), sequence (P01854 other isoform, or with tags, fused parts or gaps, stated change not applied): as above
human IgE mutant 5 (loop FG exchanged), sequence (P01854 other isoform, or with tags, fused parts or gaps, change not shown): as the sequence (P01854 other isoform, or with tags, fused parts or gaps, stated change not applied) above
human IgE mutant 2 (loop BC exchanged), sequence (P01854 other isoform, or with tags, fused parts or gaps, change not shown): as the sequence (P01854 other isoform, or with tags, fused parts or gaps, stated change not applied) above
human IgE mutant 7 (383-385 RKS to AAA), sequence (P01854 other isoform, or with tags, fused parts or gaps, change not shown): as the sequence (P01854 other isoform, or with tags, fused parts or gaps, stated change not applied) above
human IgE mutant 13 (Fcε2: 329-331 and 334-336 to Ala), sequence (P01854 other isoform, or with tags, fused parts or gaps, change not shown): as the sequence (P01854 other isoform, or with tags, fused parts or gaps, stated change not applied) above
human IgE mutant 9 (N403A, T405A), sequence (P01854 other isoform, or with tags, fused parts or gaps, stated change not applied): as above
human IgE mutant 11 (Q455A, R457A, T459A), sequence (P01854 other isoform, or with tags, fused parts or gaps, stated change not applied): as above
human IgE mutant 6 (β-strand D exchanged), sequence (P01854 other isoform, or with tags, fused parts or gaps, change not shown): as the sequence (P01854 other isoform, or with tags, fused parts or gaps, stated change not applied) above
human IgE mutant 1 (loop AB exchanged for human IgG1 loop), sequence (P01854 other isoform, or with tags, fused parts or gaps, change not shown): as the sequence (P01854 other isoform, or with tags, fused parts or gaps, stated change not applied) above

With “human IgE (U266 IgE) (from UniProt P01854 1-546) (antibody)”, the % CHO 3D10 (+) in experiment [1] was determined as 15.8%; in experiment [2], 59.6%; in experiment [4], 89.9%; in experiment [6], 90.3%. Moreover, the % IM9 (+) in experiment [3] was 82.6%; in experiment [5] it was 1.7%; in experiment [7], 92.5%; in experiment [8], 4.6%.

In turn, “human IgE mutant 1 (loop AB exchanged for human IgG1 loop) (from UniProt P01854 1-428) (antibody)” returned a % IM9 (+) in experiment [9] of 4.3%. Further, the % CHO 3D10 (+) in experiment [10] was 1.7%.

Take “human IgE mutant 2 (loop BC exchanged) (from UniProt P01854 1-428) (antibody)”: the % IM9 (+) in [9] came to 48.9%. For the same substance, in experiment [10], the % CHO 3D10 (+) turned out to be 34.3%.

Take “human IgE mutant 3 (loop CD exchanged) (from UniProt P01854 1-428) (antibody)”: the % IM9 (+) in [9] came to 1.2%. The % CHO 3D10 (+) in [10] was 32.3%.

In experiment [9], “human IgE mutant 4 (loop EF exchanged) (from UniProt P01854 1-428) (antibody)” yielded a % IM9 (+) of 9.2%. For the same substance, the % CHO 3D10 (+) in experiment [10] was 4.9%.

As to “human IgE mutant 5 (loop FG exchanged) (from UniProt P01854 1-428) (antibody)”, in [9], the % IM9 (+) is 73.9%. This substance also gave a % CHO 3D10 (+) in experiment [10] of 60.5%.

“human IgE mutant 6 (β-strand D exchanged) (from UniProt P01854 1-428) (antibody)” yielded a % IM9 (+) in [9] of 71.6%. In experiment [10], this substance showed a % CHO 3D10 (+) of 1.4%.

As to “human IgE mutant 7 (383-385 RKS to AAA) (from UniProt P01854 1-428) (antibody)”, the % IM9 (+) in experiment [9] was 4.6%. This substance returned a % CHO 3D10 (+) in experiment [10] of 76.4%.

In experiment [9], “human IgE mutant 8 (T387A, T389A) (from UniProt P01854 1-428) (antibody)” had a % IM9 (+) of 16.3%. The substance further returned a % CHO 3D10 (+) in experiment [10] of 70.3%.

As for “human IgE mutant 9 (N403A, T405A) (from UniProt P01854 1-428) (antibody)”, the % IM9 (+) in [9] was 94.3%. The % CHO 3D10 (+) in experiment [10] turned out to be 84.2%.

As for “human IgE mutant 10 (T438A, T440A) (from UniProt P01854 1-428) (antibody)”, the % IM9 (+) in experiment [9] was 84.8%. This substance also gave a % CHO 3D10 (+) in experiment [10] of 67.5%.

As to “human IgE mutant 11 (Q455A, R457A, T459A) (from UniProt P01854 1-428) (antibody)”, in experiment [9], the % IM9 (+) was 61.5%. The % CHO 3D10 (+) in experiment [10] turned out to be 70.8%.

For the substance “human IgE mutant 12 (S471A, T473A) (from UniProt P01854 1-428) (antibody)”, the % IM9 (+) in [9] stood at 90.3%. The % CHO 3D10 (+) in experiment [10] was 84.7%.

In the case of “human IgE mutant 13 (Fcε2: 329-331 and 334-336 to Ala) (from UniProt P01854 1-428) (antibody)”, in experiment [9], the % IM9 (+) was determined as 96.1%. In experiment [10], this substance gave a % CHO 3D10 (+) of 85.7%.
